Results from patent US20150072922A1, “RNASE 7 ANTIMICROBIAL PEPTIDES” (THE RESEARCH INSTITUTE AT NATIONWIDE CHILDREN'S HOSPITAL, priority 2012, published 2015).
Entries after “also recorded” stand apart in the source; their conditions may differ.

Tests used:
Escherichia coli (UTI89) = assay: SYTOX Green bacterial cell death / membrane permeabilization assay; type: cell-based; conditions: 3 hours, FIG. 1, compared to full-length
Method: (§1) Assays of the permeabilization of bacterial membrane were performed with SYTOX green nucleic acid stain (Invitrogen™). The overnight cultures of bacteria were centrifuged at 5000 rpm for 5 min, the pellets were then washed with water and resuspended in water with an OD=0.5. 90 μl of each bacteria were then incubated with 10 μl of peptides with different concentrations for 3 hours at 37° C. in a 96-well plate. 100 μl of 2 μM SYTOX Green (Invitrogen™) were then added to each well and incubated in dark for 15 min. SYTOX green penetrates cells with compromised membranes not the membranes of live cells. The increase of fluorescence was measured using […] filters for excitation and emission wavelengths, respectively. Bacteria alone and bacteria treated with 70% ethanol were used as controls and the fluorescence from each was recorded as Fmin and Fmax. The percentage of cell death at each concentration for each fragment was calculated as below: death %=(F−Fmin)/(Finax−Fmin)*100%
(§2) To confirm the accuracy of our MIC/MBC data, cell death assays using SYTOX Green (Invitrogen), which selectivity labels nucleic acids of cells with compromised membranes of dead/dying cells were performed. Overnight cultures of bacteria were centrifuged at 5000 rpm for 5 minutes. Pellets were then washed with PBS (pH 7.4) and resuspended in PBS to an OD600 of 0.5 for Escherichia coli (UTI89) and OD600 of 0.8 for Staphylococcus saprophyticus. Per manufacturerer's instructions, 90 μl of each bacteria strain were incubated with 100 μl of 2 uM SYTOX Green for 15 minutes. Ten microliters of peptides at various concentrations were added for 3 hours at 37° C. in a 96-well plate. Compromised bacterial membranes of dead/dying cells will be labeled while lives cells are not labeled as noted by Invitrogen. Fluorescence was measured using 485 and 520-nm filters for excitation and emission wavelengths, respectively. Untreated bacteria were used as a 100% live control, and fluorescence was noted as Fmin. To elicit complete killing, bacteria were treated with 70% ethanol for 1 hour. This experimental group's fluorescence was noted as Fmax. The percentage of cell death at each concentration for each fragment was calculated as (Ffragment−Fmin)/(Fmax−Fmin)×100%.

[1] = system: Staphylococcus saprophyticus; assay: as above; type: cell-based; conditions: 3 hours, FIG. 2, compared to full-length
Method: as §1, §2

[2] = system: ATCC non-uropathogenic strains; assay: RNase7 antibacterial activity, MIC on laboratory strains; type: cell-based; conditions: ATCC non-uropathogenic strains (N=3 distinct strains)
From the text: (§3) Laboratory bacterial strains from the American Type Culture Collection (ATCC, Manassas, Va.) and strains isolated from positive urine cultures were obtained from the Microbiology Laboratory at Nationwide Children's Hospital.

uropathogenic E. coli = assay: RNase7 antibacterial activity, MIC on strains isolated from positive urine cultures; type: cell-based, Escherichia coli; conditions: uropathogenic E. coli isolated from urine cultures (N=3)
From the text: as §3

[3] = system: E. Coli, P. aeruginosa and E. faecalis; assay: Atomic Force Microscopy of bacterial morphology; type: cell-based; conditions: twice the MIC, 1×10^9 cfu, FIG. 13
Method: (See FIG. 13) 1×10^9 cfu of E. Coli, P. aeruginosa and E. faecalis were incubated with twice the MIC of RNase 7. Ultra-pure water was used as a negative control. AFM imaging was performed with the Multimode AFM instrument (Veeco, Santa Barbara, Calif.) at Ohio State.

human erythocytes = type: cell-based
Method: Hemolytic assay: To determine the hemolytic activity of RNase 7, washed human erythocytes are incubated for 1 hour at 37° C. with a serial two-fold dilution of recombinant RNase 7 and its fragments in pyrogen free saline. After incubation, centrifugation to remove intact erythrocytes and a 10-fold dilution of supernatant, the concentration of released hemoglobin is measured in a micotitre plate reader at 405 nm. (Biochem J. Feb. 15 2008; 410(1):113-122) The peptide concentration that results in 50% hemolysis of erythrocytes will be designated the HC50.

[4] = system: Human primary bladder urothelial cells and renal medullary epithelial cells; assay: Cytotoxic assay; type: cell-based
Method: Cytotoxic assay: The urothelial cells that line the bladder and distal nephron epithelial cells are the primary areas of RNase7 protein expression in the kidney and urinary tract. Thus, the cytotoxicity of variant peptides on these epithelia is determined. Human primary bladder urothelial cells (Catalog #4320, ScienCell Research Laboratories, Carlsbad, Calif.) and renal medullary epithelial cells (Catalog # FC-0018, Lifeline Cell Technology, Frederick, Md.) are cultured according to the manufacture's instructions. Cytotoxicity is measured with the Live/Dead Viability/Cytotoxicity Kit for mammalian cells (Catalog number # L3224, Invitrogen/Molecular Probes, Eugene Oreg.) according to the manufacturer's fluorescence microplate protocol and expressed as the percentage of viable cells after treatment with serial two-fold dilutions of RNase 7 and its deletion fragments incubated for 1 hour at 37° C. The results of the cytotoxic assay are reported as the EC50 or the concentration that results in 50% cell death.

B1: F:1-97: recombinant N-terminal RNase 7 fragment, amino acids 1 to 97 (SEQ ID NO: 5), N-terminal His tag (protein, listed as Homo sapiens)
chain: KPKGMTSSQWFKIQHMQPSPQACNSAMKNINKHTKRCKDLNTFLHEPFSSVAATCQTPKIACKNGDKNCHQSHGPVSLTMCKLTSGKYPNCRYKEKR
modifications: N-terminal His tag
- membrane permeabilization and death, E. coli (in words) (Escherichia coli (UTI89)): increased permeability; also recorded: improved activity compared to the full-length protein; also recorded: increased membrane permeabilization and subsequent death against both strains
- membrane permeabilization and death, S. saprophyticus (in words) [1]: increased permeability; also recorded: improved activity compared to full-length; also recorded: increased membrane permeabilization and subsequent death against both strains

B2: RNase7: recombinant full-length human Ribonuclease 7, amino acids 1-128 (SEQ ID NO: 1), N-terminal His tag (protein, listed as Homo sapiens)
chain: KPKGMTSSQWFKIQHMQPSPQACNSAMKNINKHTKRCKDLNTFLHEPFSSVAATCQTPKIACKNGDKNCHQSHGPVSLTMCKLTSGKYPNCRYKEKRQNKSYVVACKPPQKKDSQQFHLVPVHLDRVL
modifications: N-terminal His tag
- mean inhibitory concentration (MIC) [2]: 1.3 µM
- mean inhibitory concentration (MIC) (uropathogenic E. coli): 2.5 µM
- morphological effect on bacteria (AFM) [3]: direct bacteriocidal effects on multiple microbes
- hemolytic properties (human erythocytes): no cytoxic or hemolytic properties
- cytotoxic properties [4]: no cytoxic or hemolytic properties
